Source: US20220387487A1, “COMPOSITIONS AND METHODS FOR TREATMENT OF CANCER” (Aleta Biotherapeutics Inc., priority 2019, published 2022)
Values joined by “and” are separate entries in the source; they are usually repeats but may differ in a detail not shown here. Equal entries are not always repeated.

What was measured:
[1] = biological target: T1, CLEC12A (Homo sapiens, UniProt Q5QGZ9); conditions: CLEC12A from AbClonal or cDNA from Genscript; previous studies; cited from earlier work
T1 construct: literature AbClonal (protein); Genscript (cDNA)
T1 sequence (Q5QGZ9 1-275 isoform Q5QGZ9-1): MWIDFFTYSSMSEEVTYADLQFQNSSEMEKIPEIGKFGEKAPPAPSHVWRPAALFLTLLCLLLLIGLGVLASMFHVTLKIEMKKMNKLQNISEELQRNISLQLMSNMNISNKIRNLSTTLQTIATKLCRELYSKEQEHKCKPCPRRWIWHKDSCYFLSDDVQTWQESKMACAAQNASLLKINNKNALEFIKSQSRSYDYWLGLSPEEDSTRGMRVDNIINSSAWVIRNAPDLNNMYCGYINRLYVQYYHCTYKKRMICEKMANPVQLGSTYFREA

[2] = biological target: T2, full-length CLEC12A, version with Q at amino acid 254, on transfected HEK-293T cells (Homo sapiens (Human), UniProt Q5QGZ9 1-265); assay: flow cytometry on HEK-293T cells transfected with CLEC12A 'Q' version, purified fusion protein, detection with HIB19-PE, % Binding
T2 construct: Generated by mutagenesis of the K version; also called Q form
T2 sequence: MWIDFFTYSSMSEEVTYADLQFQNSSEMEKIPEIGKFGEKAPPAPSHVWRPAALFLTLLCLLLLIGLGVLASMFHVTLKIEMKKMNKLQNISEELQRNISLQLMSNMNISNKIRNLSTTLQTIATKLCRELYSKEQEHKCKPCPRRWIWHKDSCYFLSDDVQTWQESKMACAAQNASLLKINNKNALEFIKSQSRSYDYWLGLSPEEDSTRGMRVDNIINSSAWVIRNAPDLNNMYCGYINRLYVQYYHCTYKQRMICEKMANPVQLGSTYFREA

[3] = biological target: T3, CLL-1 (CLEC12A) on CLL-1 positive cell lines (U937, OCI-AML-5) (human, UniProt Q5QGZ9 1-265); assay: cell-based or functional assay
T3 sequence: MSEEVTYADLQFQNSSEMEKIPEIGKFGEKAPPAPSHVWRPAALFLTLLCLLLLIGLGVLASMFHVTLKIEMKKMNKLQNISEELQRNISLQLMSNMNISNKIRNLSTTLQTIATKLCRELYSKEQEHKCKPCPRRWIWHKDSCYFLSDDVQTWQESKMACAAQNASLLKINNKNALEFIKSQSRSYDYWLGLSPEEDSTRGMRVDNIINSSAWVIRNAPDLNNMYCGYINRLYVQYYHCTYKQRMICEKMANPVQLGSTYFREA

[4] = biological target: T3, CLL-1 (CLEC12A) on CLL-1 positive cell …; assay: flow cytometry on CLL-1 positive U937 cells, expressed fusion protein, detection with FMC63-PE, % Binding
[5] = biological target: T4, full-length CLEC12A, amino acid 254 K version, on transfected HEK-293T cells (Homo sapiens (Human), UniProt Q5QGZ9 1-265); assay: flow cytometry on transfected HEK-293T cells, HIB19-PE detection
T4 construct: GenScript cDNA, UniProt Q5QGZ9-1 as printed; also called K form; K version of CLEC12A
T4 sequence: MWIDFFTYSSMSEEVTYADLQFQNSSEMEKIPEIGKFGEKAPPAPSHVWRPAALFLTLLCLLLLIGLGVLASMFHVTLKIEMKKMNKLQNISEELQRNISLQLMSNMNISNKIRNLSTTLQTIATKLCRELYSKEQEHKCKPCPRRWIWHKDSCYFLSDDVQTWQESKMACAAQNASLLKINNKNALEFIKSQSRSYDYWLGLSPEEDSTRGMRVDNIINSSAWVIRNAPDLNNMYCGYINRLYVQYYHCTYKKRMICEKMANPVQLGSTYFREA

[6] = biological target: T3, CLL-1 (CLEC12A) on CLL-1 positive cell …; assay: flow cytometry on CLL-1 positive U937 cells, FMC63-PE detection
[7] = biological target: biotinylated CD33 (UniProt P20138 18-259, biotinylated (site not stated)); assay: ELISA: fusion protein captured on FMC63, biotinylated CD33 at 0.5 µg/ml, HRP-SA
[8] = biological target: T3, CLL-1 (CLEC12A) on CLL-1 positive cell …; assay: flow cytometry on U937 cells (cell line per paragraph 272), purified fusion protein, detection with FMC63-PE, % Binding
[9] = biological target: CLEC12A as named in the ELISA column of Table 8 (UniProt Q5QGZ9); assay: ELISA (protocol as printed: FMC63 coat, fusion protein titrated, HRP anti-His)
[10] = biological target: T3, CLL-1 (CLEC12A) on CLL-1 positive cell …; assay: flow cytometry on U937 cells, purified fusion protein, a-His-PE detection, % Binding

B1: VHH clone 2H3: anti-CLL-1/CLEC12A VHH (protein)
VHH: QVQLQESGGGLVQAGGSLRLSCVASGSIRSINVMGWYRQAPGKQRELVAACASDGNTYYADSVKGRFTISRDNAEKTVYLQMNNLKPDDTAVYYCDANSRGNYYSGQGTQVTVSS
For B1, the “binding to CLEC12A containing a Lysine residue at amino acid 254” value [1] is listed as “did not bind”.

B2: anti-CLL-1 VHH(2H3)-CD19 variant (construct #330) (other)
chain: QVQLQESGGGLVQAGGSLRLSCVASGSIRSINVMGWYRQAPGKQRELVAACASDGNTYYADSVKGRFTISRDNAEKTVYLQMNNLKPDDTAVYYCDANSRGNYYSGQGTQVTVSSTSGPGGQGAGGGGSGGGGSGGGGSGGGGSPEEPLVVKVEEGDTAALWCLKGTSDGPTQQLTWSRESPLKPFLKYSLGVPGLGVHVRPDAISVVIRNVSQQMGGFYLCQPGPPSEKAWQPGWTVNVEGSGELFRWNVSDLGGLGCGLKNRSSEGPSSPSGKLMSPKLYVWAKDRPEIWEGEPPCLPPRDSLNQSLSRDLTVAPGSTLWLSCGVPPDSVSRGPLSWTHVHPKGPKSLLSLELKDDRPARDMWVMGTSLMLPRATAQDAGKWYCHRGNLTMSFHLEITARPSRHHHHHH
notes: Fusion of anti-CLL-1 VHH 2H3, linker, CD19 variant extracellular domain and His tag; also called fusion protein #330; single VHH #330 fusion protein
In the case of B2, the EC50 [2] is reported as 0.0048 nM and 0.00021 µg/mL, the “CLEC12A-cell cytotoxicity (IC50 n = 2-3)” value [3] is reported as 0.0078 nM and the EC50 [4] is reported as 0.0449 µg/mL. For the same molecule, the “fold weaker binding than to the Q form” value [5] was > 10000 fold, the EC50 [6] was 1 nM and the binding result [7] was “no binding”. For the same molecule, the EC50 [8] was 0.00406 µg/mL and 0.0865 nM, the EC50 [9] was 0.013 nM and the EC50 [10] was 0.00114 µg/mL and 0.0261 nM.
